Biological target: T1, UPF2 (endogenous), Q9HAU5
T1 chain: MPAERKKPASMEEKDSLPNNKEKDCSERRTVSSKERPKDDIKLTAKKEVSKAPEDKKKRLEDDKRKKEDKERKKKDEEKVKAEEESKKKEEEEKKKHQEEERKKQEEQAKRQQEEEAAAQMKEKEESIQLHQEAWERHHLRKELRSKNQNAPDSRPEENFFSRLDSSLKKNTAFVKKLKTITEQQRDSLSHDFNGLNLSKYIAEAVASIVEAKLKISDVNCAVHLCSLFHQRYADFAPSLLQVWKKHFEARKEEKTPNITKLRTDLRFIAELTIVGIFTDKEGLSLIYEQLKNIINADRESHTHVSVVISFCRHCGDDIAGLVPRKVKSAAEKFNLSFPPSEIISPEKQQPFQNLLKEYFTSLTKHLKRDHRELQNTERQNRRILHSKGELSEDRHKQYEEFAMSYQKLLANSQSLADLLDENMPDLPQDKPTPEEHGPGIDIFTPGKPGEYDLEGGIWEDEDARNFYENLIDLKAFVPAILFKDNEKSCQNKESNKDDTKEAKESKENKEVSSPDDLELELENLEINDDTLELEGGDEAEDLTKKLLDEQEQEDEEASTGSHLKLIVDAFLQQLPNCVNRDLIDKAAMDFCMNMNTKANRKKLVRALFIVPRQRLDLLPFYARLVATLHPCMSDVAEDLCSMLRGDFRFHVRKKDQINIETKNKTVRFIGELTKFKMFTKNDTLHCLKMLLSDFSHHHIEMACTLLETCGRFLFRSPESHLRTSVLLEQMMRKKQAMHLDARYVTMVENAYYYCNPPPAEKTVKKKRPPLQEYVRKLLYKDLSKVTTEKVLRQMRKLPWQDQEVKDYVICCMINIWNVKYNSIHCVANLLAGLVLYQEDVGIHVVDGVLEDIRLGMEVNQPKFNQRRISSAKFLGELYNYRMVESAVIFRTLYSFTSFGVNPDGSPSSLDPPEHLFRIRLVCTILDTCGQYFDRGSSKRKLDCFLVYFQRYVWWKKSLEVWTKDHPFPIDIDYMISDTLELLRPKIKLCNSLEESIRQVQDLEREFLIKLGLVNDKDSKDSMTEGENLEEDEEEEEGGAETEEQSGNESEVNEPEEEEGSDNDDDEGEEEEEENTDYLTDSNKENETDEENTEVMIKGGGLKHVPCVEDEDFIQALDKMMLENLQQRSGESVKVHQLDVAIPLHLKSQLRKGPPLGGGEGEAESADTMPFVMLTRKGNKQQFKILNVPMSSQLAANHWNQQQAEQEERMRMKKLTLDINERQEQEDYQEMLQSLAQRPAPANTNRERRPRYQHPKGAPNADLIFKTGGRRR
Assay: TurboID proximity labelling, streptavidin enrichment, mass spectrometry
Settings: chain shown with the change; UPF3B KO + UPF3A KD cells; n = 3 biologically independent samples; read off a plot

other: log2 fold change: -1.8
B1: FLAG-TurboID-UPF3B, Q9BZI7-2 K52D; RR56EE (protein)
chain: MKEEKEHRPKEKRVTLLTPAGATGSGGGTSGDSSKGEDKQDRNKEKKEALSDVVIEELPPTLTKEQLQEHLQPMPEHDYFEFFSNDTSLYPHMYARAYINFKNQEDIILFRDRFDGYVFLDNKGQEYPAIVEFAPFQKAAKKKTKKRDTKVGTIDDDPEYRKFLESYATDNEKMTSTPETLLEEIEAKNRELIAKKTTPLLSFLKNKQRMREEKREERRRREIERKRQREEERRKWKEEEKRKRKDIEKLKKIDRIPERDKLKDEPKIKLLKKPEKGDEKELDKREKAKKLDKENLSDERASGQSCTLPKRSDSELKDEKPKRPEDESGRDYREREREYERDQERILRERERLKRQEEERRRQKERYEKEKTFKRKEEEMKKEKDTLRDKGKKAESTESIGSSEKTEKKEEVVKRDRIRNKDRPAMQLYQPGARSRNRLCPPDDSTKSGDSAAERKQESGISHRKEGGEE

Reference: PMC9108619
